Our source for the Kd, koff and kon values is patent publication US20250195685A1 (CAPSTAN THERAPEUTICS, published 2025).

Assay [1] concerns the target T1, human CD8αα homodimer, recombinant protein (Acro Biosystems) (human, UniProt P01732 22-182).
T1 construct: also called CD8αα antigen; biotinylated CD8α recombinant protein (CDA-H82E3)
Nature of the assay: BLI steady state, whole hIgG1-LALAPA antibody on CD8α-His (Ni-NTA sensor), 30 °C. The protocol:
To assess affinity of whole antibodies, steady state analysis was used as the bivalent nature of both whole antibody and CD8α complicates kinetic analysis. 50 nM CD8α-His (that is, CD8α with a C-terminal oligohistidine tag; Acro) was immobilized on Ni-NTA sensor probes. Binding was analyzed with a three-fold antibody dilutions series: 60 nM, 20 nM, 6.67 nM, 2.22 nM, 0.74 nM, and 0.25 nM. The antigen-loaded sensors were incubated in the diluted solutions to capture the whole IgG antibody for 300 s to record the association phase. Sensors were incubated in the kinetic buffer for 900 s to record the dissociation phase. The spin speed was 1000 rpm for all steps except the antigen loading step which was 400 rpm to control density of the antigen. The temperature of the performed assays was at 30° C. during the association and dissociation phases. The sensor data were baseline subtracted and further analyzed in GatorOne software (version 2.10) to determine the equilibrium dissociation constants (KD) of the antibodies by fitting the signals of the steady states to the 1:1 binding model.

The target of assay [2] is human CD8αβ heterodimer, recombinant protein (human, UniProt P01732 22-182; P10966 22-170, limits assumed). Nature of the assay: SPR (Biacore 8K), antibody captured by anti-human Fc, CD8 as analyte, 1:1 fit, 25 °C. The protocol:
(§1) Except for cynomolgus CD8αβ heterodimer, binding was analyzed with a two-fold dilution series of recombinant CD8αα homodimer or CD8αβ heterodimer protein from 200 nM to 6.25 nM. For cynomolgus CD8αβ heterodimer, binding was analyzed with a two-dilution series from 400 nM to 12.5 nM.. The global fitting was performed with a 1:1 fitting model using GatorOne software as described below.
(§2) Surface plasmon resonance (SPR) assays were performed using a Biacore 8K SPR instrument (Cytiva) in a running buffer containing 1×HBS-N(Cytiva) and 0.05% Tween-20 at 25° C. The CBD1033 antibody was captured by anti-human IgG (Fc) antibody (Cytiva) immobilized on a CM5 sensor chip (Cytiva) at a density within 40-50 and 80-100 response units (RU) for kinetic measurements with CD8αα and CD8αp, respectively. To measure the binding kinetics, serial two-fold dilutions of recombinant CD8 protein were prepared in the running buffer were injected into the flow cells at […], with the concentration ranging from 200 to 6.25 nM (successive 1:2 dilutions). The association data was collected for 180 s followed by a 1200 s dissociation step. At the end of each binding cycle, the sensor surface was regenerated with a 3M MgCl₂ buffer. For cynomolgus macaque CD8αβ heterodimer, the binding kinetics were assessed with the same experimental parameters, except the concentration ranges from 400 to 12.5 nM. Sensorgrams were generated, and background-subtracted with the blank running buffer. The binding kinetic parameters were analyzed and determined with a standard 1:1 monovalent binding (Langmuir) model using BIAcore Evaluation software (Cytiva).
A general note: SPR reads the build-up and loss of mass on a sensor chip optically.

The target in assay [3] is T2, cynomolgus macaque CD8αβ heterodimer, recombinant protein (cynomolgus macaque).
T2 construct: In BLI coupled directly to amine-reactive sensor tips; also called cynomolgus CD8αβ heterodimer
The assay is described as above. The protocol:
as §1, §2

The target of assay [4] is T1, human CD8αα homodimer, recombinant …. The description is as above. The protocol:
as §1, §2

The target in assay [5] is T3, cynomolgus macaque CD8αα homodimer, recombinant protein (cynomolgus macaque).
T3 construct: also called cynomolgus CD8αα homodimer
The description is as above. The protocol: as §1, §2

In assay [6] the target is T1, human CD8αα homodimer, recombinant …. Kind of assay: BLI binding kinetic analysis, whole antibody, sample stressed at pH 8.5, 40 °C, 3 days. A general note: Biolayer interferometry detects binding as a change in optical thickness at a sensor tip.

T1 sequence (P01732 22-182 limits assumed): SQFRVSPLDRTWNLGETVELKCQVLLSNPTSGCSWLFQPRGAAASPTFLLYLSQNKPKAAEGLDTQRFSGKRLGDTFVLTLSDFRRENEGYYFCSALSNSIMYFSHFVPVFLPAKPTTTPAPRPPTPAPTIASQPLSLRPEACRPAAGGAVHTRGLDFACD
Sequence of human CD8αβ heterodimer, recombinant protein (P01732 22-182 limits assumed, chain 1 of 2): as the sequence (P01732 22-182 limits assumed) above
Sequence of human CD8αβ heterodimer, recombinant protein (P10966 22-170 limits assumed, chain 2 of 2): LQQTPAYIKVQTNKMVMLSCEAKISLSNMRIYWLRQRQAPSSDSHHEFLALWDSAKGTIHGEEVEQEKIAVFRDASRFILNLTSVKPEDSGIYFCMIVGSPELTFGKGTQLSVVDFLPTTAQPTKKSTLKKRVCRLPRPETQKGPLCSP

B1: CBD1017ch whole antibody (chimeric CT8 antibody) (antibody, V domains shown)
VH: EVQLQQSGPELVKPGASVKISCKASRYTFTDYNLHWVKLSHEKSLEWIGFIYPYNGGTGYNQKFKNKAKLTVDYSSSTAYMELRSLTSVDAAVYYCARDHRYNEGVSFDYWGQGTTLTVSS
VL: NIVLTQSPASLAVSLGQRATISCRASESVDGFGNSFMNWYQQKPGQSPKLLIYLASNLESGVPARFSGSGSRTDFTLTIDPVEADDAATYYCQQNNEDPYTFGGGTKLEIK
notes: Chimeric antibody comprising the variable regions of the donor antibody CT8; detected with anti-human Fc
One may read the Kd as the constant that tells how readily two partners part at equilibrium. B1: the Kd in assay [1] is 0.58 nM.

B2: CBD1033 whole antibody, human IgG1 with Fc-silencing mutations L234A, L235A and P329A (CBD1033-hIgG1-LALAPA) (antibody, V domains shown)
VH: QVQLVQSGAEVKKPGASVKVSCKASRYTFTDYNLHWVRQAPGQGLEWMGFIYPYNGGTGYAQKFQGRVTMTVDTSTSTAYMELSSLRSEDTAVYYCARDHRYNEGVSFDYWGQGTTVTVSS
VL: DIQLTQSPSSLSASVGDRATITCRASESVDGFGNSFMNWYQQKPGKAPKLLIYLASNLESGVPSRFSGSGSGTDFTLTISSVQPEDFATYYCQQNNEDPYTFGQGTKLEIKR
notes: On tLNPs the antibody was SATA-modified or AJICAP-thiolated (CBD1033.29) and conjugated to the LNP; also called CBD1033.3; CBD1033 IgG1
The term koff denotes the first-order rate constant of dissociation. As usually defined, the kon is the second-order rate constant of association. On to B2, for which the Kd in assay [2] was found to be 8.99 nM; in assay [3], 31 nM; in assay [4], 2.46 nM; in assay [5] it was 5.43 nM; in assay [6], 2 nM. The koff in assay [2] was determined as 0.00111 s⁻¹; in assay [3], 0.00114 s⁻¹; in assay [4] it was 0.000289 s⁻¹; in assay [5], 0.000271 s⁻¹; in assay [6], 0.00314 s⁻¹. Moreover, the kon in assay [2] turned out to be 124000 M⁻¹ s⁻¹; in assay [3], 36800 M⁻¹ s⁻¹; in assay [4] it was 117000 M⁻¹ s⁻¹; in assay [5] it was 50000 M⁻¹ s⁻¹; in assay [6], 1.57e+06 M⁻¹ s⁻¹.
